Tests used:
[1] = system: MPCs; test: Seahorse XFe96 analysis of MPC bioenergetics (basal OCR, reserve capacity); type: cell-based, mice; details: aged MPCs, recombinant α-Klotho in culture for 48 hours, 0.05μg/mL
Experimental: In light of the loss of mitochondrial ultrastructural resulting from decreased α-Klotho expression, we next evaluated whether loss of α-Klotho drives MPC mitochondrial dysfunction. The bioenergetic profiles of young and aged MPCs were studied using a Seahorse XFe96 Flux analyzer, which measures oxygen consumption rate (OCR), a measure of oxidative phosphorylation. OCR was measured again after injection of oligomycin, FCCP, 2-deoxyglucose (2-DG), and rotenone. […] When young MPCs were treated with siRNA to α-Klotho, basal OCR was reduced to ˜25% values of scramble-treated counterparts (FIG. 4C, FIG. 14). MPCs isolated from uninjured Kl+/− mice display a similarly blunted bioenergetic profile (FIG. 4D). […] Reserve capacity represents the spare bioenergetic capacity, is calculated as the difference between the basal and maximal OCR, and indicates the ability of a cell to respond to stress. […]
(§1) Oxygen consumption rate (OCR) and extracellular acidification rate (ECAR) were measured in real time using a Seahorse XFe96 Extracellular Flux Analyzer (Billerica, Mass.) as described elsewhere (see, e.g., de Moura and Van Houten, 2014 Methods Mol Biol, 1105:589-602). The basal OCR was measured by averaging the OCR values before treating the cells with oligomycin. Total reserve capacity was calculated by the differences of OCR between treatment with FCCP and 2DG and basal values. […]

[2] = system: MPCs; test: qPCR-based analysis of mtDNA damage and mtDNA copy number in MPCs; type: cell-based, mice; details: aged MPCs, recombinant α-Klotho in culture for 48 hours, 0.05μg/mL
Experimental: mtDNA integrity was next examined in MPCs isolated from young or aged mice, using a qPCR-based assay. The method used is based on the principle that a wide variety of types of DNA damage have the propensity to block DNA polymerase progression (see, e.g., Furda et al., 2012 DNA Repair (Amst), 11:684-92). Therefore, this assay detects numerous kinds of base DNA damage or DNA repair intermediates such as abasic sites, as well as single and double DNA strand breaks.
MPCs were treated with 25 nmol of silencing RNA (siRNA) to α-Klotho (GE Dharmacon, Product no.SO2462181G) for 48 hours. As a control, young MPCs were treated with a non-targeting (scramble) siRNA. […]
as §1, with “values. Mitochondrial DNA damage was quantified as described elsewhere (see, e.g., Sanders et al., 2014 Toxicol Sci, 142:395-402; and Sanders et al., 2014 Neurobiol Dis, 62:381-6).” for “values.”

[3] = system: OGG1 and APE1; test: LXRepair multiplex DNA base excision repair enzyme activities in MPCs; type: cell-based, mice; details: siRNA-treated MPCs from young animals, 48 hours of α-Klotho supplementation
Experimental: LXRepair multiplex technology (see, e.g., Garreau-Balandier et al., 2014 FEBS Lett, 588:1673-9; and Sauvaigo et al., 2004 Anal Biochem, 333:182-92) was used to evaluate the DNA base excision repair (BER) enzyme activities of OGG1 and APE1, which work on two common oxidative DNA lesions, 8-oxodG and abasic sites, respectively.
MPCs were treated with 25 nmol of silencing RNA (siRNA) to α-Klotho (GE Dharmacon, Product no.SO2462181G) for 48 hours. As a control, young MPCs were treated with a non-targeting (scramble) siRNA. Aged MPCs were treated with 0.05μg/mL exogenous α-Klotho (R & D systems, Product no. aa 34-981), added to the culture media for 48 hours.

[4] = system: aged mice; test: Cardiotoxin TA muscle injury in aged mice, α-Klotho supplementation in vivo; details: for functional recovery (wire hang test, in situ contractile testing) / myofiber area / number of regenerating fibers: daily i.p. 10 μg/kg
Experimental: Wild-type male C57BL/6 young, Kl+/− mice, or old mice received injuries to bilateral Tibialis Anterior (TA) muscles via an intramuscular injection of cardiotoxin (10 μL of 1 mg/mL). Fourteen days following the injury, TAs were harvested for histological analysis of α-Klotho, fibrosis (picrosirius red), degenerating myofibers (IgG) and myofiber regeneration (laminin). Second Harmonic Generation (SHG) imaging was performed on isolated TA muscles treated with a non-targeting control or lentiviral knockdown of α-Klotho, as well as pump-administered animals in order to visualize collagen and myofibers within the muscle 14 days post injury, as described elsewhere (see, e.g., Zhang et al., 2016 Stem Cells 34:732-742).
Strength endurance was tested using the hang-wire test as described elsewhere (see, e.g., Aartsma-Rus et al., J. Vis. Exp 85:51303 (2014)). The Hang Impulse (HI) score was calculated as bodyweight (grams)×time hung (seconds). Male mice were used for all testing using C57B1/6 mice. Wild type and Kl+/− were females for testing.
Mini osmotic pumps containing either saline or α-Klotho (324 pg/ml in saline vehicle) were inserted subcutaneously into aged mice. After 2 days, bilateral TA muscles were injured by intramuscular CTX injection (as above). Osmotic pumps remained implanted until euthanasia 14 days post injury. Isotonic saline or α-Klotho (10 μg/kg body weight) was administered to aged animals via daily intraperitoneal injections over days 1-3 post-injury or 3-5 days post-injury. The TAs were then harvested 14 days post injury and preserved for histology or SHG analysis. Blood serum was also collected to evaluate circulating α-Klotho levels via ELISA. The activity of α-Klotho was confirmed as described elsewhere (see, e.g., Shalhoub et al., 2011 Calcif Tissue Int, 89:140-50).

B1: α-Klotho: recombinant/exogenous α-Klotho protein (R & D systems, Product no. aa 34-981) (protein)
chain: AEPGQGAQTWARFARAPAPEAAGLLHDTFPDGFLWAVGSAAYQTEGGWRQHGKGASIWDTFTHHSGAAPSDSPIVVAPSGAPSPPLSSTGDVASDSYNNVYRDTEGLRELGVTHYRFSISWARVLPNGTAGTPNREGLRYYRRLLERLRELGVQPVVTLYHWDLPQRLQDTYGGWANRALADHFRDYAELCFRHFGGQVKYWITIDNPYVVAWHGYATGRLAPGVRGSSRLGYLVAHNLLLAHAKVWHLYNTSFRPTQGGRVSIALSSHWINPRRMTDYNIRECQKSLDFVLGWFAKPIFIDGDYPESMKNNLSSLLPDFTESEKRLIRGTADFFALSFGPTLSFQLLDPNMKFRQLESPNLRQLLSWIDLEYNHPPIFIVENGWFVSGTTKRDDAKYMYYLKKFIMETLKAIRLDGVDVIGYTAWSLMDGFEWHRGYSIRRGLFYVDFLSQDKELLPKSSALFYQKLIEDNGFPPLPENQPLEGTFPCDFAWGVVDNYVQVDTTLSQFTDPNVYLWDVHHSKRLIKVDGVVAKKRKPYCVDFSAIRPQITLLREMRVTHFRFSLDWALILPLGNQTQVNHTVLHFYRCMISELVHANITPVVALWQPAAPHQGLPHALAKHGAWENPHTALAFADYANLCFKELGHWVNLWITMNEPNTRNMTYRAGHHLLRAHALAWHLYDDKFRAAQKGKISIALQADWIEPACPFSQNDKEVAERVLEFDIGWLAEPIFGSGDYPRVMRDWLNQKNNFLLPYFTEDEKKLVRGSFDFLAVSHYTTILVDWEKEDPMKYNDYLEVQEMTDITWLNSPSQVAVVPWGLRKVLNWLRFKYGDLPMYVTANGIDDDPHAEQDSLRIYYIKNYVNEALKAYVLDDINLCGYFAYSLSDRSAPKSGFYRYAANQFEPKPSMKHYRKIIDSNGFLGSGTLGRFCPEEYTVCTECGFFQTRKSLLVFISFLVFTFIISLALIFHYSKKGQRSYK
- OCR [1]: increased OCR
- reserve capacity [1]: increased reserve capacity
- mtDNA damage [2]: decreased mtDNA damage
- activity of BER enzymes (OGG1, APE1; 8-oxodG and abasic sites) [3]: dramatically stimulated the activity of these BER enzymes
- activity of BER enzymes (OGG1, APE1; 8-oxodG and abasic sites) ([3]; listed as Klotho): stimulated repair
- functional recovery (wire hang test, in situ contractile testing) ([4]; 1-3 dpi): only animals receiving α-Klotho over 3-5 dpi displayed an improved functional recovery
- myofiber area ([4]; 1-3 dpi): significant increase in myofiber area
- number of regenerating fibers ([4]; 1-3 dpi): significant increase in the number of regenerating fibers
- functional recovery (wire hang test, in situ contractile testing) ([4]; 3-5 dpi): improved functional recovery
- myofiber area ([4]; 3-5 dpi): significant increase in myofiber area
- number of regenerating fibers ([4]; 3-5 dpi): significant increase in the number of regenerating fibers
- local α-Klotho within the injured muscle areas ([4]; osmotic pump, 324 pg/ml, 14 dpi): significant increase in local α-Klotho
- increase in the number of MyoD+ cells at the site of injury ([4]; osmotic pump, 14 dpi): approximately 3.5 fold
- number of regenerating fibers after injury (histology and SHG) ([4]; osmotic pump, 14 dpi): increased number of regenerating fibers
- myofiber cross sectional area ([4]; osmotic pump, vs saline): no significant increase
- total muscle area ([4]; osmotic pump, vs saline): no significant increase
